Measured values published in PMC8360118 (Genes to Cells, 2021).
* marks the point of attachment. αMan = OC[C@H]1O[C@H](*)[C@@H](O)[C@@H](O)[C@@H]1O

T1: soluble form of bovine POMGNT2 (sPOMGNT2, residues 45–580) (bovine, UniProt Q5NDF2 45-580)
T1 sequence (looked up): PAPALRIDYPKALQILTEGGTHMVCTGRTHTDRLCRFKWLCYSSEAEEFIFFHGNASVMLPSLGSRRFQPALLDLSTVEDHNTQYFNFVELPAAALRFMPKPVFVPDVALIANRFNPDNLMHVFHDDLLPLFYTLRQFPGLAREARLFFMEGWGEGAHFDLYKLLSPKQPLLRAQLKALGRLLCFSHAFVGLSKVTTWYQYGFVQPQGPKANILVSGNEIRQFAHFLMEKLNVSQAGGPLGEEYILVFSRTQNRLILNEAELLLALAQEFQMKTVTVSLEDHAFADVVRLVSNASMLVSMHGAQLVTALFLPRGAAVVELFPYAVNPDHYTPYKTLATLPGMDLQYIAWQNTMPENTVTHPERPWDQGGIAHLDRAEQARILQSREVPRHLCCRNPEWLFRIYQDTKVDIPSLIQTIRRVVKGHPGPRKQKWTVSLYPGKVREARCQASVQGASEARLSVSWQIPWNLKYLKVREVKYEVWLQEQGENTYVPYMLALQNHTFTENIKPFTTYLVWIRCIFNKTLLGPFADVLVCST


Molecular target: T1, soluble form of bovine POMGNT2 …
Assay: crystal structure

| binding result | Binder |
| --- | --- |
| binds | Ac-TIRTRGAIIQT(αMan)PTLGPIQPTR-NH2 (SMILES CC[C@H](C)[C@H](NC(=O)[C@H](C)NC(=O)CNC(=O)[C@H](CCCNC(=N)N)NC(=O)[C@@H](NC(=O)[C@H](CCCNC(=N)N)NC(=O)[C@@H](NC(=O)[C@@H](NC(C)=O)[C@@H](C)O)[C@@H](C)CC)[C@@H](C)O)C(=O)N[C@H](C(=O)N[C@@H](CCC(N)=O)C(=O)N[C@H](C(=O)N1CCC[C@H]1C(=O)N[C@H](C(=O)N[C@@H](CC(C)C)C(=O)NCC(=O)N1CCC[C@H]1C(=O)N[C@H](C(=O)N[C@@H](CCC(N)=O)C(=O)N1CCC[C@H]1C(=O)N[C@H](C(=O)N[C@@H](CCCNC(=N)N)C(N)=O)[C@@H](C)O)[C@@H](C)CC)[C@@H](C)O)[C@@H](C)O[C@H]1O[C@H](CO)[C@@H](O)[C@H](O)[C@@H]1O)[C@@H](C)CC) [379Man long peptide] |
| binds | Ac-QT(αMan)PTLGPIQPTR-NH2 (SMILES CC[C@H](C)[C@H](NC(=O)[C@@H]1CCCN1C(=O)CNC(=O)[C@H](CC(C)C)NC(=O)[C@@H](NC(=O)[C@@H]1CCCN1C(=O)[C@@H](NC(=O)[C@H](CCC(N)=O)NC(C)=O)[C@@H](C)O[C@H]1O[C@H](CO)[C@@H](O)[C@H](O)[C@@H]1O)[C@@H](C)O)C(=O)N[C@@H](CCC(N)=O)C(=O)N1CCC[C@H]1C(=O)N[C@H](C(=O)N[C@@H](CCCNC(=N)N)C(N)=O)[C@@H](C)O) [379Man short peptide] |
